Four molecules from patent publication US20130347134A1 (published 2013) can be followed below.

The labels stand for the following.
B2: murine platelet glycoprotein Ib alpha (GPIb α) on mouse platelets (receptor, UniProt O35930 17-734, looked up)
chain: QHTCSISKVTSLLEVNCENKKLTALPADLPADTGILHLGENQLGTFSTASLVHFTHLTYLYLDRCELTSLQTNGKLIKLENLDLSHNNLKSLPSLGWALPALTTLDVSFNKLGSLSPGVLDGLSQLQELYLQNNDLKSLPPGLLLPTTKLKKLNLANNKLRELPSGLLDGLEDLDTLYLQRNWLRTIPKGFFGTLLLPFVFLHANSWYCDCEILYFRHWLQENANNVYLWKQGVDVKDTTPNVASVRCANLDNAPVYSYPGKGCPTSSGDTDYDDYDDIPDVPATRTEVKFSTNTKVHTTHWSLLAAAPSTSQDSQMISLPPTHKPTKKQSTFIHTQSPGFTTLPETMESNPTFYSLKLNTVLIPSPTTLEPTSTQATPEPNIQPMLTTSTLTTPEHSTTPVPTTTILTTPEHSTIPVPTTAILTTPKPSTIPVPTTATLTTLEPSTTPVPTTATLTTPEPSTTLVPTTATLTTPEHSTTPVPTTATLTTPEHSTTPVPTTATLTTPEPSTTLTNLVSTISPVLTTTLTTPESTPIETILEQFFTTELTLLPTLESTTTIIPEQNSFLNLPEVALVSSDTSESSPFLNSDFCCFLPLGFYVLGLLWLLFASVVLILLLTWTWHVTPHSLDMEQSAALATSTHTTSLEVQRARQVTMPRAWLLFLQGSLPTFRSSLFLWVRPNGRVGPLVAGRRPSALSQGRGQDLLGTVGIRYSGHSL
notes: whole, on cells; Native receptor on mouse platelets or whole blood; also called murine GPIb α; mGPIb-α

The target in test [1] is T1, human platelet glycoprotein Ib alpha (GPIb α) on human platelets (human, UniProt P07359 17-652).
T1 construct: whole, on cells; Native receptor on washed platelets or whole blood; also called GPIb alpha; hGPIb-α
Description: human platelets perfused over immobilized mutant VWF-A1, wall shear rate 800 s-1.

Test [2] has as its target B2. Description: platelet translocation on coated protein, wall shear rate 800 s^-1. The method, then:
(§1) The protein was subsequently used in a series of in vitro flow chamber assays to assess function. […] After 5 minutes of continuous flow, adherent platelets were quantified.
(§2) Subsequently, the ability of murine and human platelets to interact with this mutant protein substrate was evaluated at a wall shear rate of 800 s⁻¹.

Test [3] has as its target B2. Description: platelet adhesion to coated protein, wall shear rate 800 s^-1. As for the experimental part:
as §1, §2

In test [4] the target is T2, murine plasma von Willebrand factor (VWF), wild type (mouse, UniProt Q8CIZ8 764-2813).
T2 construct: Plasma-derived multimeric mouse VWF; also called mouse VWF; murine VWF
T2 sequence (Q8CIZ8 other isoform, or with tags, fused parts or gaps limits assumed): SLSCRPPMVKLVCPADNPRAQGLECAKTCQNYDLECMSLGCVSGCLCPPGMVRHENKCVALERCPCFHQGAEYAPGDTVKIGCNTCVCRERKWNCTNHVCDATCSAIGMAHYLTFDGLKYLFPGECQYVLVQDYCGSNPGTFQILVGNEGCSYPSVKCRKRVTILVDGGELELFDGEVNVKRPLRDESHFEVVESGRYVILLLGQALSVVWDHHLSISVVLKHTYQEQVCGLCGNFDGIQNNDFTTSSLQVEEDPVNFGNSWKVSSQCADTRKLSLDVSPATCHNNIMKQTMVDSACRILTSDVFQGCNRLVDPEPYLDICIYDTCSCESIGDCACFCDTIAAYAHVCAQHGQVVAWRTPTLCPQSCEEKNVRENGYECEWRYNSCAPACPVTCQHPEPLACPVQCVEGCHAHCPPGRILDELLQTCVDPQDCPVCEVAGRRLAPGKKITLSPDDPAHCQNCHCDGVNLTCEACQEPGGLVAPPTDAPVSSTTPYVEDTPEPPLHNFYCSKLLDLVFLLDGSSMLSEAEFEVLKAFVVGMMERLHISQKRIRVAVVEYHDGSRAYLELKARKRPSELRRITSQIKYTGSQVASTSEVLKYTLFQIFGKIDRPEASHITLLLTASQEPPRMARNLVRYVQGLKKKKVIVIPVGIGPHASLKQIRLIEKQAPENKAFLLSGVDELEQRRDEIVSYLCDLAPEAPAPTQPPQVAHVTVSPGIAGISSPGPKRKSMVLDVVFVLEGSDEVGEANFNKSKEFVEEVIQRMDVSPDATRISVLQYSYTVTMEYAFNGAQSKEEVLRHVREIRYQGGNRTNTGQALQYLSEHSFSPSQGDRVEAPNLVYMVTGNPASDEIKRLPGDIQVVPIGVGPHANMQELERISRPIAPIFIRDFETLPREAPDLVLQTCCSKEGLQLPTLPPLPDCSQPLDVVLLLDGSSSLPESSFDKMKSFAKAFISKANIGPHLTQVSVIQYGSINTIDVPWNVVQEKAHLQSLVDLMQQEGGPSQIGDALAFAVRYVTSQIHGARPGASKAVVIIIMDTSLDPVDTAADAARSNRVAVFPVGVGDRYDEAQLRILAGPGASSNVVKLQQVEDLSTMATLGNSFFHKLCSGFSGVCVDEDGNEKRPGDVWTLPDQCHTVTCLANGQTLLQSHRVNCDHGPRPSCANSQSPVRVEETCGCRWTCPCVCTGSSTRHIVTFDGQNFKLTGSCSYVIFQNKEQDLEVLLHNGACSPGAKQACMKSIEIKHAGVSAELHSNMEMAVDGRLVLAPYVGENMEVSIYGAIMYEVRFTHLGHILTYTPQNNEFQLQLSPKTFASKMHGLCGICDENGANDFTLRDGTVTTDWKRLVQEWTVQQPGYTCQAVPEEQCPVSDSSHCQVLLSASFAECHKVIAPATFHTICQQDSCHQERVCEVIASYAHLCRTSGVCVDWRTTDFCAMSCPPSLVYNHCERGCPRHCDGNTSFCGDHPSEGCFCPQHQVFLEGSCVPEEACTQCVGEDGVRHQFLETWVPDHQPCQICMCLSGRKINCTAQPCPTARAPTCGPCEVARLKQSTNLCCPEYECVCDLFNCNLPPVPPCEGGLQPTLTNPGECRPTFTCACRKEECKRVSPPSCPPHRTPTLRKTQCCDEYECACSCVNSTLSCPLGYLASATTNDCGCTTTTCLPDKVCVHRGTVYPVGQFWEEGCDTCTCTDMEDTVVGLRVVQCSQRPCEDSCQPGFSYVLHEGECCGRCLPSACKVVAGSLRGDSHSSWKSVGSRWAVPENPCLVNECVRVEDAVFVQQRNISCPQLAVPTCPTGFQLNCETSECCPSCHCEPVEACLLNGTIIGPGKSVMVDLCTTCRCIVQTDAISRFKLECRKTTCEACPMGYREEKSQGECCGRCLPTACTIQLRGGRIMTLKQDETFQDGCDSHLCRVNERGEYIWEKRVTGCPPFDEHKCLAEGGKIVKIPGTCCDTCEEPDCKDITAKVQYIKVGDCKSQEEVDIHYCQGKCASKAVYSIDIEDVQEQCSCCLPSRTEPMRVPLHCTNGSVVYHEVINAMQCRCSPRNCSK
Description: mouse whole blood perfused 4 min over surface-immobilized plasma VWF, 1600 s-1. The method, then: (§3) Ex vivo platelet adhesion studies. Experiments were performed in a parallel-plate flow chamber as previously described (Offermanns, S., et al., 2006). […] Subsequently, the plate was washed and non-specific interactions blocked by the addition of TBS containing 3% BSA, pH 7.4 (1 hour, 37° C.). Human or murine plasma obtained from heparinized whole blood was added and the plates placed at 37° C. for an additional 2 hours. […] The number of platelets attached per unit area (0.07 mm²) and translocation velocities were determined by off-line analysis (Image-Pro Plus, Media Cybernetics). For GPIb α inhibition studies, the function-blocking mAb 6D1 (20 μg/ml) or mAb SZ2 (20 μg/ml; Beckman Coulter, Brea, Calif.) was added to anticoagulated human blood for 30 minutes prior to use. Experiments were performed in triplicate on two separate days. An ELISA was used to ensure equivalent coating concentration of plasma and recombinant proteins (Denis, C. et al., 1998).

Test [5] has as its target T3, mouse plasma VWF containing the majority of the human A1 domain (amino acids 1240P through 1481G of human VWF) (mouse VWF with human A1 domain, UniProt Q8CIZ8 764-2813, limits assumed).
T3 construct: Plasma VWF from homozygous VWF-HA1 mice; also called VWF-HA1; VWF HA1
Description: parallel-plate flow system: WT mouse blood infused over surface-immobilized plasma VWF.

For test [6], the target named is T4, murine plasma VWF containing the 1326R>H mutation (VWF^1326R>H) (mouse, UniProt Q8CIZ8 764-2813).
T4 construct: also called R1326H mutant mouse VWF; mutant murine VWF
Description: statement in Example 1; binding reduced.

For test [7], the target named is T1, human platelet glycoprotein Ib alpha …. Description: interaction times of VWF-A1-coated beads on surface-immobilized platelets, wall shear stress 1 dyn cm^-2. As for the experimental part:
(§4) The duration of these interactions are measured by recording images from a Nikon X60 DIC objective (oil immersion) viewed at a frame rate of 235 fps (Speed Vision Technologies, San Diego, Calif.) and subjected to wall shear stresses (WSS) ranging from 0.5 to 3.0 dyn cm⁻². […] The force acting on the i tether bond was calculated from force balance equations and koff plotted as a function of these forces. […] Because these platelets cannot activate, the kinetics should be reflective of GPIb α in the resting state.

For test [8] the target is unchanged. Description: interaction times of VWF-A1-coated beads on surface-immobilized platelets, wall shear stress 1 dyn cm^-2; 1309I>V + 1326H>R double mutant; 1 dyn cm^-2 wall shear stress. The method, then: as §4
For test [9] the target is unchanged. The test is described as follows: human whole blood over immobilized protein, parallel-plate flow chamber, 1600 s^-1. The method, then: as §3
Test [10] addresses B2. Description: mouse whole blood perfused 4 min over surface-immobilized recombinant VWF-A1, 1600 s-1. The method, then:
as §3

Broadly, the koff is a measure of how fast the partners let go of each other.

T3 sequence (Q8CIZ8 other isoform, or with tags, fused parts or gaps limits assumed): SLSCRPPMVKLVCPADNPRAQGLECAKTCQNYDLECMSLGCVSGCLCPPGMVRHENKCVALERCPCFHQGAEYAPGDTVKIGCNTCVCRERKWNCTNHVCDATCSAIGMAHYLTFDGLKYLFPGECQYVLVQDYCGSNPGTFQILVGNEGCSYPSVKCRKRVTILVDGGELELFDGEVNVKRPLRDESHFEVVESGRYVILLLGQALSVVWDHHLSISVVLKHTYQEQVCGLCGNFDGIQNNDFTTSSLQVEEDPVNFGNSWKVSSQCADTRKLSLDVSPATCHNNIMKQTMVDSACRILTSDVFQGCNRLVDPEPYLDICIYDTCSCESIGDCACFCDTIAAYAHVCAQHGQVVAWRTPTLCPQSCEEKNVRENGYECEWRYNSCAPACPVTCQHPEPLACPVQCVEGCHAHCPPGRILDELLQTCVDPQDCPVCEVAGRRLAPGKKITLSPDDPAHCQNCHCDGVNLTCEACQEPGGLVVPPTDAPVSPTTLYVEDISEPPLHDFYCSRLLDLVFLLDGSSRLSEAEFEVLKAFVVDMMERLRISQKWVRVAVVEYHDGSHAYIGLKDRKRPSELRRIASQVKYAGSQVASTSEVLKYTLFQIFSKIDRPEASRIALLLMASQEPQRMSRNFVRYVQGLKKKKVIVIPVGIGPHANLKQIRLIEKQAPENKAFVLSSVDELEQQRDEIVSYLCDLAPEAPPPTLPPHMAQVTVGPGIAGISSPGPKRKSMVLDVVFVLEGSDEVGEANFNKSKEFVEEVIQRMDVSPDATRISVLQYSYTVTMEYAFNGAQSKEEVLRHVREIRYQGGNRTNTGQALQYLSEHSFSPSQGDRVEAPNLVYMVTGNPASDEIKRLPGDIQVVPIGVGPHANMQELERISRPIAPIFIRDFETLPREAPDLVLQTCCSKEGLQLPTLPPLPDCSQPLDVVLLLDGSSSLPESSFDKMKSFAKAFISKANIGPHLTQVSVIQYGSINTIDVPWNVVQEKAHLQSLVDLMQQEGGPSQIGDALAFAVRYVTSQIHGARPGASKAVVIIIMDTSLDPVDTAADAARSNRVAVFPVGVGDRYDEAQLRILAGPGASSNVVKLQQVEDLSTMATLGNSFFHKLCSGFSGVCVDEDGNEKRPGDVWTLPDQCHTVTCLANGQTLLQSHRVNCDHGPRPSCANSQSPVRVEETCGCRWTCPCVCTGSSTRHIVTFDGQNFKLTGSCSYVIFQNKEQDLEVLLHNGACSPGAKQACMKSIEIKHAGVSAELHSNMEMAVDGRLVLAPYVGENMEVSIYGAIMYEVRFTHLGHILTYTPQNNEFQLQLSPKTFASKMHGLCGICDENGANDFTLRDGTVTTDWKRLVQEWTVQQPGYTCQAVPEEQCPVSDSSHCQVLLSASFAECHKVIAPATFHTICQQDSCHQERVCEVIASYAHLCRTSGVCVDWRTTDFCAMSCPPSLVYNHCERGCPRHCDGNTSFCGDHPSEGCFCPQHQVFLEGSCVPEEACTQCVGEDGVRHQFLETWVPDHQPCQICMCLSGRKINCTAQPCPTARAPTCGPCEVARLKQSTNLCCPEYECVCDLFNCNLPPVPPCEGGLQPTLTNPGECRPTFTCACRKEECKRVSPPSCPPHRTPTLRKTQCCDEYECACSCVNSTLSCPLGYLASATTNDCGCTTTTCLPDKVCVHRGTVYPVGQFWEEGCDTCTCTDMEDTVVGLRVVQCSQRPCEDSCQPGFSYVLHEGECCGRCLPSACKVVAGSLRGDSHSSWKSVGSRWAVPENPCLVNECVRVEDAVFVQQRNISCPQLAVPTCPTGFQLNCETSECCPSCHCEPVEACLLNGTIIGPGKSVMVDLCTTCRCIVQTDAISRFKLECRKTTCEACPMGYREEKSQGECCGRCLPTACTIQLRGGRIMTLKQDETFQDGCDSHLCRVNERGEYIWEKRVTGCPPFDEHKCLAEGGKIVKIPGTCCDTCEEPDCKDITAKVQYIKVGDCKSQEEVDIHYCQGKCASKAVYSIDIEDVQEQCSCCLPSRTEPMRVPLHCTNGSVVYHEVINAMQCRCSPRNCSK

B1: recombinant murine VWF-A1 with histidine for arginine at position 1326 (Example 1) (ligand)
chain: TCEACQEPGGLVAPPTDAPVSSTTPYVEDTPEPPLHNFYCSKLLDLVFLLDGSSMLSEAEFEVLKAFVVGMMERLHISQKRIRVAVVEYHDGSHAYLELKARKRPSELRRITSQIKYTGSQVASTSEVLKYTLFQIFGKIDRPEASHITLLLTASQEPPRMARNLVRYVQGLKKKKVIVIPVGIGPHASLKQIRLIEKQAPENKAFLLSGVDELEQRRDEIVSYLCDLAPEAPAPTQPP
notes: also called mutated murine protein; not shown: 10 vector-derived N-terminal amino acids including 6xHis (pQE9)
Turning to B1, the binding result in test [1] is given as “binds”. Besides, the “fold increase in translocation velocity versus WT mouse protein” value in test [2] was about 7 fold. Also, the “fold reduction in platelet adhesion versus WT mouse protein” value in test [3] is about 5 fold.
On to B2, for which the binding result is recorded as “binds” in [4], “no binding” in test [5] and “binds” in [6].

B3: recombinant human VWF-A1 containing 1309I>V and 1326H>R (ligand)
chain: QEPGGLVVPPTDAPVSPTTLYVEDISEPPLHDFYCSRLLDLVFLLDGSSRLSEAEFEVLKAFVVDMMERLRVSQKWVRVAVVEYHDGSRAYIGLKDRKRPSELRRIASQVKYAGSQVASTSEVLKYTLFQIFSKIDRPEASRIALLLMASQEPQRMSRNFVRYVQGLKKKKVIVIPVGIGPHANLKQIRLIEKQAPENKAFVLSSVDELEQQRDEIVSYLCDLAPEAPPPTLPPH
As to B3, the “fold reduction in koff versus the single 1326H>R mutant” value in [7] is 2 fold. The dissociation rate constant (koff) in test [8] worked out at 8.5 s⁻¹.

B4: recombinant wild-type murine VWF-A1 domain protein (amino acid residues 1238 to 1471), Example 3 (ligand)
chain: QEPGGLVAPPTDAPVSSTTPYVEDTPEPPLHNFYCSKLLDLVFLLDGSSMLSEAEFEVLKAFVVGMMERLHISQKRIRVAVVEYHDGSRAYLELKARKRPSELRRITSQIKYTGSQVASTSEVLKYTLFQIFGKIDRPEASHITLLLTASQEPPRMARNLVRYVQGLKKKKVIVIPVGIGPHASLKQIRLIEKQAPENKAFLLSGVDELEQRRDEIVSYLCDLAPEAPAPTQPP
notes: Generated in bacteria, with a single disulfide 1272-1458; also called murine rVWF-A1; WT murine VWF-A1 domain protein
Consider B4, for which, in [9], the “platelet deposition relative to same-species control” value is 25%. The binding result in test [10] is given as “binds”.
